Data: patent US8034786B2, “Methods and means for controlling the endocytosis and subsequent degradation of growth hormone receptor” (Recharge B.V., priority 2005, dated 2011)

B1: KQQRIKMLILPPVPVPKIKGIDPDLLKEGKLEEVNTILAIHDSYKPEFHSDDS WVEFIELD (peptide)
chain: KQQRIKMLILPPVPVPKIKGIDPDLLKEGKLEEVNTILAIHDSYKPEFHSDDSWVEFIELD
notes: 61 amino acid peptide of GHR, residues 270-331

How the values were obtained:
[1] = molecular target: GHR constructs with one of seven amino acids of the UbE motif (indicated as underlined in …) mutated to alanine; test: pull-down of 35S-labelled β-TrCP on GH-GHR beads, background (GHR 1-286) subtracted
GHR and β-TrCP = test: Inhibition of the interaction between GHR and β-TrCP; type: binding

Molecule | inhibition of binding as compared to wtGHR [1] | inhibition of F-box protein (β-TrCP) interaction with ubiquitin/proteasome binding site of GHR (GHR and β-TrCP)
in vitro-translated- and 35S-labelled-TrCP2 | > 60% | 
B1 |  | capable of providing inhibition
